Consider 2 substances from PMC6853222.

As a reminder, the stoichiometry N is a count of units in the complex or per binding partner.

Assay [1] concerns the target GII.3 huNoV TV24 P protein (GII.3 human norovirus TV24). Put plainly: crystal structure; TV24 P protein, native and with A tetrasaccharide; hanging drop vapor diffusion, 9.6% PEG 3350, 160 mM ammonium citrate tribasic pH 7.0, 20 mM tri-sodium citrate pH 5.6, 500 mM 1,6-hexanediol, 20 °C; homodimers in the asymmetric unit.
The target in assay [2] is GII.11 porNoV VA34 P protein (GII.11 porcine norovirus VA34). Nature of the assay: crystal structure; VA34 P protein, native; hanging drop vapor diffusion, 100 mM Tris pH 8.0, 16% PEG 3350, 6% tacsimate pH 8.0, 20 °C.

“GII.3 huNoV TV24 P protein (domain or fragment)”: in assay [1], the stoichiometry N came to 2. As to “GII.11 porNoV VA34 P protein (domain or fragment)”, the stoichiometry N in assay [2] is 2.
